Results taken from paper PMC11880322.

biological target: ∆14-PrfaH (IncX3 plasmid pHNYX644 …, UniProt A0A0C5EQ24 1-155); assay: EMSA

Does AAAGATTCGGGGTCATCCGAGTCGAGAGAGCGCCTG (ssDNA) [ss-W1] bind?
Result: binds

Does TCTGATTCGGGGTCATCCGAGTCGAAAGAGCGCCTG (ssDNA) [ss-W9] bind?
Result: binds

Does TCTGATTCGGGGTCATCCGAGTCGAGAGAGCGCAAA (ssDNA) [ss-W12] bind?
Result: binds

Does TCTGATTCGGGGTCATCCGAGTCGAGAAAACGCCTG (ssDNA) [ss-W10] bind?
Result: binds

Does TCTAAATCGGGGTCATCCGAGTCGAGAGAGCGCCTG (ssDNA) [ss-W2] bind?
Result: binds

Does TCTGATTCGGGGTCATCCGAGTCGAGAGAGAAACTG (ssDNA) [ss-W11] bind?
Result: binds
